Reference: IntAct's records for PubMed 29892012

B1: Abl interactor 2 (Homo sapiens), Q9NYB9 (parent)
chain: MAELQMLLEEEIPGGRRALFDSYTNLERVADYCENNYIQSADKQRALEETKAYTTQSLASVAYLINTLANNVLQMLDIQASQLRRMESSINHISQTVDIHKEKVARREIGILTTNKNTSRTHKIIAPANLERPVRYIRKPIDYTILDDIGHGVKWLLRFKVSTQNMKMGGLPRTTPPTQKPPSPPMSGKGTLGRHSPYRTLEPVRPPVVPNDYVPSPTRNMAPSQQSPVRTASVNQRNRTYSSSGSSGGSHPSSRSSSRENSGSGSVGVPIAVPTPSPPSVFPAPAGSAGTPPLPATSASAPAPLVPATVPSSTAPNAAAGGAPNLADGFTSPTPPVVSSTPPTGHPVQFYSMNRPASRHTPPTIGGSLPYRRPPSITSQTSLQNQMNGGPFYSQNPVSDTPPPPPPVEEPVFDESPPPPPPPEDYEEEEAAVVEYSDPYAEEDPPWAPRSYLEKVVAIYDYTKDKEDELSFQEGAIIYVIKKNDDGWYEGVMNGVTGLFPGNYVESIMHYSE
partner: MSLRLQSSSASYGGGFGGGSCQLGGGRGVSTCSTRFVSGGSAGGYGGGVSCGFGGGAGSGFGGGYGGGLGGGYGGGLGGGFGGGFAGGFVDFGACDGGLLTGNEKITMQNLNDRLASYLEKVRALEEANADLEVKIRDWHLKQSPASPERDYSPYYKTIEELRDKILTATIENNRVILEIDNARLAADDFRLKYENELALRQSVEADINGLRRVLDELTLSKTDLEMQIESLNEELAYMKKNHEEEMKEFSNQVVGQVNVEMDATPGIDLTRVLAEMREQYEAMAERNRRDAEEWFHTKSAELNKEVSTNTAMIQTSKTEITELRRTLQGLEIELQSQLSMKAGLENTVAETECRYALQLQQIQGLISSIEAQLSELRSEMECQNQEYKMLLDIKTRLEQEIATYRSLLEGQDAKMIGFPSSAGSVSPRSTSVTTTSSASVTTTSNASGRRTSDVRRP
B2: Late cornified envelope protein 1B (Homo sapiens), Q5T7P3 (parent)
chain: MSCQQNQQQCQPPPKCIPKCPPKCLTPRCPPKCPPKCPPVSSCCSVSSGGCCGSSSGGSCGSSSGGCCSSGGGGCCLSHHRRRRSHCHRPQSSGCCSQPSGGSSCCGGGSGQHSGGCC
partner: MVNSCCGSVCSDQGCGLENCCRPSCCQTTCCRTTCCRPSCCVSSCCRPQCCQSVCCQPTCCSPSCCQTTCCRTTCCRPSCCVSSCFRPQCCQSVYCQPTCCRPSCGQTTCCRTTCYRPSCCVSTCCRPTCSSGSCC
B3: Abl interactor 2 (Homo sapiens), Q9NYB9 (parent)
chain: B1 chain
partner: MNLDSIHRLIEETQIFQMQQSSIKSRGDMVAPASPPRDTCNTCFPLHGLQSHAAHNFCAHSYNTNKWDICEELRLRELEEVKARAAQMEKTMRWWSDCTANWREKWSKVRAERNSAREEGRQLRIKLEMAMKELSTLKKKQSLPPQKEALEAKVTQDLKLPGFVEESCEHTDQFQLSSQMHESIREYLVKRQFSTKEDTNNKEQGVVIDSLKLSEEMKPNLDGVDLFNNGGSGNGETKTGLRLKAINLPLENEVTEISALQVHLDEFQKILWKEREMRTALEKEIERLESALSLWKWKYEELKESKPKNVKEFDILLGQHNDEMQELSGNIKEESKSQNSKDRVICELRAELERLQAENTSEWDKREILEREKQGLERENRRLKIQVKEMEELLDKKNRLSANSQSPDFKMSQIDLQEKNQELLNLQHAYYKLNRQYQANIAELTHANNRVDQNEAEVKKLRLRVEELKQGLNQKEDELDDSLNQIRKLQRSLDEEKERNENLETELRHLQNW
B4: E3 ubiquitin-protein ligase LNX (Homo sapiens), Q8TBB1 (parent)
chain: MNQPESANDPEPLCAVCGQAHSLEENHFYSYPEEVDDDLICHICLQALLDPLDTPCGHTYCTLCLTNFLVEKDFCPMDRKPLVLQHCKKSSILVNKLLNKLLVTCPFREHCTQVLQRCDLEHHFQTSCKGASHYGLTKDRKRRSQDGCPDGCASLTATAPSPEVSAAATISLMTDEPGLDNPAYVSSAEDGQPAISPVDSGRSNRTRARPFERSTIRSRSFKKINRALSVLRRTKSGSAVANHADQGRENSENTTAPEVFPRLYHLIPDGEITSIKINRVDPSESLSIRLVGGSETPLVHIIIQHIYRDGVIARDGRLLPGDIILKVNGMDISNVPHNYAVRLLRQPCQVLWLTVMREQKFRSRNNGQAPDAYRPRDDSFHVILNKSSPEEQLGIKLVRKVDEPGVFIFNVLDGGVAYRHGQLEENDRVLAINGHDLRYGSPESAAHLIQASERRVHLVVSRQVRQRSPDIFQEAGWNSNGSWSPGPGERSNTPKPLHPTITCHEKVVNIQKDPGESLGMTVAGGASHREWDLPIYVISVEPGGVISRDGRIKTGDILLNVDGVELTEVSRSEAVALLKRTSSSIVLKALEVKEYEPQEDCSSPAALDSNHNMAPPSDWSPSWVMWLELPRCLYNCKDIVLRRNTAGSLGFCIVGGYEEYNGNKPFFIKSIVEGTPAYNDGRIRCGDILLAVNGRSTSGMIHACLARLLKELKGRITLTIVSWPGTFL
partner: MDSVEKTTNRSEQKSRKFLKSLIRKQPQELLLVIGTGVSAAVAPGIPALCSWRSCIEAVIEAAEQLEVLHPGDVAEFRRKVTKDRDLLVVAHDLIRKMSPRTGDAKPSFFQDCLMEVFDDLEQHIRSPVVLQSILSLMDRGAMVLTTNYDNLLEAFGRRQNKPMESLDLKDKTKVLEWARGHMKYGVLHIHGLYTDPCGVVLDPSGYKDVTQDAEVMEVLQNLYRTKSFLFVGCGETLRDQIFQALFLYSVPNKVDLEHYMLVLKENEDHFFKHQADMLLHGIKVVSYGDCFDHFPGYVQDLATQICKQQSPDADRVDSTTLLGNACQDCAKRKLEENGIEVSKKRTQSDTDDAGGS
B5: Abl interactor 2 (Homo sapiens), Q9NYB9 (parent)
chain: B1 chain
partner: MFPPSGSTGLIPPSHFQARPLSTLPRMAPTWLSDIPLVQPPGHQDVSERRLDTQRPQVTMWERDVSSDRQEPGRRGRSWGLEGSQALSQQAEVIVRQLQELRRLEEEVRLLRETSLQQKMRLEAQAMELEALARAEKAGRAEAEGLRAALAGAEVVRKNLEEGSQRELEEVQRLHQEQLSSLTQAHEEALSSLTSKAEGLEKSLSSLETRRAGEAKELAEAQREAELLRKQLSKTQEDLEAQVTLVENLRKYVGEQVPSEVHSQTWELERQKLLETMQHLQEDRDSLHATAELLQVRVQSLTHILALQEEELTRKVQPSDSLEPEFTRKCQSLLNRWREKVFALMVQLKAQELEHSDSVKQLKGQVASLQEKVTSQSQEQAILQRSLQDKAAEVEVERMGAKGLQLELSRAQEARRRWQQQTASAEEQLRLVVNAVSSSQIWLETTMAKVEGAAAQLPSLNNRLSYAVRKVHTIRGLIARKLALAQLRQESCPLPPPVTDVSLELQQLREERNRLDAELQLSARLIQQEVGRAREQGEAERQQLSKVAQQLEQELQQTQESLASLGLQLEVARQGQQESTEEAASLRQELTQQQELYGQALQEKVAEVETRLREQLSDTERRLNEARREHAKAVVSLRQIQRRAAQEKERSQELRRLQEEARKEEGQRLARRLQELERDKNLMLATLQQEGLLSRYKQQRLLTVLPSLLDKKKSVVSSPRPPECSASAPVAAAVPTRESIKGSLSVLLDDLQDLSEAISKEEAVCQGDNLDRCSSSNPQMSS
B6: Coiled-coil domain-containing protein 14 (Homo sapiens), Q49A88 (parent)
chain: MKRGIRRDPFRKRKLGGRAKKVREPTAVNSFYREASLPSVWASLRRREMVRSGARPGQVLSSGRHTGPAKLTNGKKATYLRKIPRFNADSGYSIHSDSESQAETVHGLDGCASLLRDILRNEDSGSETAYLENRSNSRPLESKRYGSKKKRHEKHTIPLVVQKETSSSDNKKQIPNEASARSERDTSDLEQNWSLQDHYRMYSPIIYQALCEHVQTQMSLMNDLTSKNIPNGIPAVPCHAPSHSESQATPHSSYGLCTSTPVWSLQRPPCPPKVHSEVQTDGNSQFASQGKTVSATCTDVLRNSFNTSPGVPCSLPKTDISAIPTLQQLGLVNGILPQQGIHKETDLLKCIQTYLSLFRSHGKETHLDSQTHRSPTQSQPAFLATNEEKCAREQIREATSERKDLNIHVRDTKTVKDVQKAKNVNKTAEKVRIIKYLLGELKALVAEQEDSEIQRLITEMEACISVLPTVSGNTDIQVEIALAMQPLRSENAQLRRQLRILNQQLREQQKTQKPSGAVDCNLELFSLQSLNMSLQNQLEESLKSQELLQSKNEELLKVIENQKDENKKFSSIFKDKDQTILENKQQYDIEITRIKIELEEALVNVKSSQFKLETAEKENQILGITLRQRDAEVTRLRELTRTLQTSMAKLLSDLSVDSARCKPGNNLTKSLLNIHDKQLQHDPAPAHTSIMSYLNKLETNYSFTHSEPLSTIKNEETIEPDKTYENVLSSRGPQNSNTRGMEEASAPGIISALSKQDSDEGSETMALIEDEHNLDNTIYIPFARSTPEKKSPLSKRLSPQPQIRAATTQLVSNSGLAVSGKENKLCTPVICSSSTKEAEDAPEKLSRASDMKDTQLLKKIKEAIGKIPAATKEPEEQTACHGPSGCLSNSLQVKGNTVCDGSVFTSDLMSDWSISSFSTFTSRDEQDFRNGLAALDANIARLQKSLRTGLLEK
partner: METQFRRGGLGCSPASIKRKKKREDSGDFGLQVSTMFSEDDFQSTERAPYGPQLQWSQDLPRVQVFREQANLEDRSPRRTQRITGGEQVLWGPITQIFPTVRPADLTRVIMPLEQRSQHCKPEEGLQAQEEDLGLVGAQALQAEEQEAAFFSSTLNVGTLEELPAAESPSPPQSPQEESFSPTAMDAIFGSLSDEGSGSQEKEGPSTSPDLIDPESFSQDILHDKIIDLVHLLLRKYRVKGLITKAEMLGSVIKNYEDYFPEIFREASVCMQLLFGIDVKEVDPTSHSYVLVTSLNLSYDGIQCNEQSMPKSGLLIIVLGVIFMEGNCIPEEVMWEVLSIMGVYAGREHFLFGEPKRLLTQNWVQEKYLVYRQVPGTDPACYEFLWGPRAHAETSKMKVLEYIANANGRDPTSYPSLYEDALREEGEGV
B7: Late cornified envelope protein 1B (Homo sapiens), Q5T7P3 (parent)
chain: B2 chain
partner: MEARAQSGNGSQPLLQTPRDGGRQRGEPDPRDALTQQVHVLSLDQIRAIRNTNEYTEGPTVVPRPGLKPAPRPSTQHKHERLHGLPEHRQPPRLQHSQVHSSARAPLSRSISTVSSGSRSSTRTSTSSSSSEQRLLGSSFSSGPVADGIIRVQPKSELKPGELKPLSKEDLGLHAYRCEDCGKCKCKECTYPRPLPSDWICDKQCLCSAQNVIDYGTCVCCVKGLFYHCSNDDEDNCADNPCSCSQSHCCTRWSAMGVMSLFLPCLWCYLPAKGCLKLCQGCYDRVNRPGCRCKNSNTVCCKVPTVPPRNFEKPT
B8: AP-1 complex subunit sigma-2 (Homo sapiens), P56377 (parent)
chain: MQFMLLFSRQGKLRLQKWYVPLSDKEKKKITRELVQTVLARKPKMCSFLEWRDLKIVYKRYASLYFCCAIEDQDNELITLEIIHRYVELLDKYFGSVCELDIIFNFEKAYFILDEFLLGGEVQETSKKNVLKAIEQADLLQEEAETPRSVLEEIGLT

Variants of: B1
Conditions: with KRT13, P13646

Row | Variant | effect of a mutation on the interaction
1 | R373C | with no effect

Variants of: B2
Conditions: with kra42_human KRTAP4-2, Q9BYR5

Row | Variant | effect of a mutation on the interaction
2 | C16Y | with no effect

Variants of: B3
Conditions: with CCDC102B

Row | Variant | effect of a mutation on the interaction
3 | E202K | with no effect

Variants of: B3
Conditions: with CCDC102B
Remark: another data set of the same source

Row | Variant | effect of a mutation on the interaction
4 | R373C | with no effect

Variants of: B4
Conditions: with FAM118A

Row | Variant | effect of a mutation on the interaction
5 | E295K | disrupting interaction strength

Variants of: B5
Conditions: with cchcr_human CCHCR1, Q8TD31

Row | Variant | effect of a mutation on the interaction
6 | R373C | with no effect

Variants of: B5
Conditions: with cchcr_human CCHCR1, Q8TD31
Remark: another data set of the same source

Row | Variant | effect of a mutation on the interaction
7 | E202K | with no effect

Variants of: B6
Conditions: with magab_human MAGEA11, P43364

Row | Variant | effect of a mutation on the interaction
8 | I476T | with no effect

Variants of: B7
Conditions: with spy2_human SPRY2, O43597

Row | Variant | effect of a mutation on the interaction
9 | C16Y | with no effect

Variants of: B8
Conditions: with ap1g1_human AP1G1, O43747
ap1g1_human AP1G1, O43747, sequence (O43747 whole entry): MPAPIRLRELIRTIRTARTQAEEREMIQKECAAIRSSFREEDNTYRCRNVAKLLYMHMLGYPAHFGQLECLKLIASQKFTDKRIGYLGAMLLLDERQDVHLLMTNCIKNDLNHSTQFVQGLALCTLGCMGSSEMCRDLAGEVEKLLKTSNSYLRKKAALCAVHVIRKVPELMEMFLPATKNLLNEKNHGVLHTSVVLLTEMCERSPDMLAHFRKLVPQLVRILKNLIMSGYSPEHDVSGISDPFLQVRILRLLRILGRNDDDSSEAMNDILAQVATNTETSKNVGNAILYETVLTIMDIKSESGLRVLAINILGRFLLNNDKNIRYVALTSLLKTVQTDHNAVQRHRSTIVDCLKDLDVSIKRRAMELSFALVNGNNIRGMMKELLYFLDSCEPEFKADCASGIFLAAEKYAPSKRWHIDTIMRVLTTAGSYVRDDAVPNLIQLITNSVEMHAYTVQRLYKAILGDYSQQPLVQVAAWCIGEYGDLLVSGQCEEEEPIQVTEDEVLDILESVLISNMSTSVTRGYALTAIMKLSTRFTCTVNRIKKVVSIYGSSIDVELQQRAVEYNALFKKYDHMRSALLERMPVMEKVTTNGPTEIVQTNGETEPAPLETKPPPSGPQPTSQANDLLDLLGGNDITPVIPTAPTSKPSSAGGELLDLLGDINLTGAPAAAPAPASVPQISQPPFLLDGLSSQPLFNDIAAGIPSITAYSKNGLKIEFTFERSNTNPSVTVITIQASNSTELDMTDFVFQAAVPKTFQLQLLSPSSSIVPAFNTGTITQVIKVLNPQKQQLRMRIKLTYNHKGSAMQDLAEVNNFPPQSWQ

Row | Variant | effect of a mutation on the interaction
10 | R9C | with no effect
